Laboratory results from US20210163606A1 (ATYR PHARMA, published 2021).

How the values were obtained:
[1] = biological target: T1, Cynomolgus NRP2 (aa23-854) with C-terminal Fc-tag (cynomolgus monkey); experiment: SPR (ProteOn XPR36), antibody captured on anti-human Fab-kappa, cyno NRP2-Fc as analyte, bivalent analyte fit
T1 construct: range 23-854; sensorgrams fitted to a bivalent analyte model; also called Cynomolgus NRP2 antigen protein
Protocol: Anti-NRP2 antibody binding and affinity measurements. […] SPR experiments were conducted on a Bio-Rad ProteOn XPR36 Protein Interaction Array instrument. Biotinylated anti-human antibody (ThermoFisher Cat #7103302100) was immobilized on ProteOn NLC sensor chips. Anti-NRP2 antibodies were subsequently flowed over and captured by the anti-human antibody. Cynomolgus NRP2 antigen protein was flowed over the captured antibody at varying concentrations (150, 50, 16.67, 5.56, 1.85 nM). The sensor chip surface was regenerated between each analyte run to remove anti-NRP2 antibodies and NRP2 protein. Data was double referenced against a surface with no anti-NRP2 antibody captured (immobilized anti-human antibody only) and a buffer only blank. Affinity constants were derived by globally fitting sensograms to a bivalent analyte interaction model in the ProteOn manager software. For each anti-NRP2 antibody, data from the multiple NRP2 concentrations was fit as a single data set with dissociation rate constant (kd), association rate constant (kₐ) and Rₘₐₓ values as global parameters. The reported binding affinity is the equilibrium dissociation constant (KD) calculated from kd/kₐ. [0681] Running buffer: 50 mM HEPES, 300 mM NaCl, 5 mM CaCl₂, 0.005% Tween-20, pH 7.4 [0682] Immobilized antibody: CaptureSelect Human Fab-kappa Kinetics Biotin Conjugate, Thermo Fisher Cat #7103302100 [0683] Antigen: Cynomolgus NRP2 (aa23-854) with C-terminal Fc-tag [0684] Regeneration buffer: 10 mM glycine pH 2.0

[2] = biological target: T2, human NRP2 variant 2 (hNRP2), untagged, on Expi293 cells (Human, UniProt O60462 23-931); experiment: flow cytometry on Expi293-hNRP2 clonal cells
T2 construct: Transcript NM_003872 / NP_003863.2; also called Expi293-hNRP2 clonal cells; Human NRP2a (version 2)
T2 sequence: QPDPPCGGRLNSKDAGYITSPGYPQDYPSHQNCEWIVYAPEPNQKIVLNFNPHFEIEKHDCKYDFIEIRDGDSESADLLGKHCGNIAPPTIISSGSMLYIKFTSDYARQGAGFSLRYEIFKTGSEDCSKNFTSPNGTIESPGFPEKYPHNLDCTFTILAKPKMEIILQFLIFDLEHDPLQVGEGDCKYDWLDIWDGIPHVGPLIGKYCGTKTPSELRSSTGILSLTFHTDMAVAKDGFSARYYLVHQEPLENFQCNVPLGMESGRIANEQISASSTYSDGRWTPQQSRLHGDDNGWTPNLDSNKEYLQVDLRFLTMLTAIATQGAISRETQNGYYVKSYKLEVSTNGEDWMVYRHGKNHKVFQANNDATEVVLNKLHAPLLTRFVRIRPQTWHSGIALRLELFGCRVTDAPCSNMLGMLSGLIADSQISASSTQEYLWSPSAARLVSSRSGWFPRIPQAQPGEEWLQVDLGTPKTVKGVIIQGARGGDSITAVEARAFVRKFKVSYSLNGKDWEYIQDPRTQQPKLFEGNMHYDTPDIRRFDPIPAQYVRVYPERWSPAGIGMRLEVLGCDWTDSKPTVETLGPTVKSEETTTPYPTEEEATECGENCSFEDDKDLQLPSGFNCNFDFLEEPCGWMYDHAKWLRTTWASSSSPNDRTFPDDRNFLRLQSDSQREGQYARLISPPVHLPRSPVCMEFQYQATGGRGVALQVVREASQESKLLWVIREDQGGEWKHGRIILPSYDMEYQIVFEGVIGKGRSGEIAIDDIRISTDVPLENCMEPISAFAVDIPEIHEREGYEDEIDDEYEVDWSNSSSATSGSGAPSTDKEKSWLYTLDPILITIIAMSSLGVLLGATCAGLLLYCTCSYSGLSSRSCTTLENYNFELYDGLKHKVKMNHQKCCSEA
Protocol: Expi293-hNRP2 clonal cells were collected by centrifugation at 300 g for 5 minutes, and washed twice by DPBS (with calcium and magnesium, ThermoFisher Cat #14040133). Washed cells were added to a 96-well V-bottom plate (ThermoFisher Cat #1424572) at 100,000 cells/well in […] of DPBS added with Zombie Violet viability stain (Biolegend Cat #423114, diluted at 1:500). From this step on, cells were protected from light. Cells were kept at room temperature for 10 min and pelleted down at 300 g for 5 minutes at 4° C. Supernatants containing Zombie Violet were discarded, and without washing, 30 uL of antibodies diluted in the flow wash buffer (FWB, DPBS plus 2% FBS and 0.1% sodium azide to inhibit receptor internalization) were added to the cells. For anti-NRP2 antibody staining on Expi293-hNRP2 clonal cells, in-house human anti-NRP2 antibodies were tested at final concentrations of 0.006-100 nM at 4-fold dilutions. […] Binding was allowed to proceed on ice for 40-60 minutes. Cells were then pelleted at 300 g for 5 minutes at 4° C., supernatants removed, and cells washed twice by adding 150 μL of FWB and centrifuging the cells again in the same conditions. To detect a-NRP2 binding on the cell surface, Cy3-conjugated goat anti-human IgG Fc (Jackson ImmunoResearch Cat #109165098) was added to the cells at a final concentration of 3 μg/mL in 30 μL of FWB. After 30-40 minutes of incubation on ice, cells were pelleted at 300 g for 5 minutes at 4° C. and supernatants removed, and the cells were washed twice as described previously. Cells were then resuspended in FWB before acquisition on the Cytoflex. Gains were set based on staining controls. Cells were collected with typically more than 10,000 events. Cells were then analyzed on FlowJo analysis software by excluding dead cells and gating singlets. The statistical analysis was performed using GraphPad Prism. A four-parameter variable-slope curve was fitted to the data ([agonist] vs. response) using non-linear regression, and the EC₅₀ and r2 for each curve was determined.
The EC₅₀ of four anti-NRP2 antibodies directed against different domains of NRP2, were measured for binding to Expi293-hNRP2 clonal cells (see Table E1 and FIG. 3).

B1: aNRP2-10v10 (antibody, V domains shown)
VH: EVQLVQSGAEVKKPGATVKISCKVSGFNIKDYYVHWVQQAPGKGLEWMGRIDVEDDETKYAPKFQGRVTITADTSTDTAYMELSSLRSEDTAVYYCATPIYGAREAWFAYWGQGTLVTVSS
VL: DIQMTQSPSSLSASVGDRVTITCTASSSVSSSYLHWYQQKPGKAPKLLIYRTSNLASGVPSRFSGSGSGTDFTLTISSLQPEDFATYYCHQYYRSPPTFGGGTKVEIK
Q: What does the source list for B1?
A: Kd [1]: 0.032 nM; EC50 [2]: 0.09 nM
